Measurements reported in PMC4951027.

Target: ecto-domain of integrin α5β1-Fc fusion protein
Assay: SPR

B1: Fn + FnBPA-10 (FnBPA-10-bound Fn) (complex)
chain 1: not shown
chain 2: not shown
chain 3: KYEHGGNIIDIDFDSVPHIHGFNKHTEIIEEDTNKDKP
For B1, which Kd is on record?
The Kd was 260 nM.

What about the ka1 (first step, bivalent analyte model) of the same binder?
Its ka1 (first step, bivalent analyte model) is 61000 M⁻¹ s⁻¹.

And the ka2 (second step, bivalent analyte model)?
Its ka2 (second step, bivalent analyte model) is 1.3e-05 RU^-1s^-1.

What about the kd1 (first step, bivalent analyte model) of the same binder?
Its kd1 (first step, bivalent analyte model) is 0.015 s⁻¹.

What about the kd2 (second step, bivalent analyte model) of the same binder?
Its kd2 (second step, bivalent analyte model) is 0.001 s⁻¹.
